Measured values reported in patent publication US20130323252A1 (Novartis, published 2013).
One block for each molecule: values may come before it. Positions of bridges follow the written chain, without caps; N, C: chain ends. No end group written: not given here.

Columns and labels:
[1] = biological target: TMEM16A-GFP fusion protein on HEK293 stable cells (UniProt Q5XXA6); test: flow cytometry on HEK293-TMEM16A cells
linear peptide 46_ECD1-3 = biological target: T1, linear peptide 46_ECD1-3 (human); test: peptide microarray, linear peptide, Cy5 anti-rat IgG detection
T1 peptide: KDYREPPWSENKYDI
Protocol: (§1) Both set of peptides were printed on microarray slides in triplicate, incubated with the antibody of interest (12E11) and control antibodies. One is an incubation with an unrelated antibody from the same isotype (rat control IgG2b), the second using only the secondary antibody (anti-rat IgG (H+L) (JIR, 212-175-082) (Label Cy5)) to assess unspecific binding due to the detection antibody. The experiments are performed essentially as described in Maksimov P, et al. 2012, PLoS One 7:e34212. doi:10.1371/journal.pone. 0034212.
(§2) The determination of peptide-antibody binding was performed by RepliTope-analysis where the peptide microarray (triplicate) was incubated with the primary antibody followed by a fluorescently labelled secondary antibody directed against the Fc-part of the primary one. All steps were performed on a TECAN microarray processing station enabling highly reliable and reproducible washing and incubation steps. After performing the incubation steps and subsequent to the final washing steps (to remove the unbound secondary antibodies) the microarrays were dried using a nitrogen stream and scanned in a high resolution microarray scanning system with appropriate wavelength settings. Control incubations were performed with an unrelated antibody having the same isotype to exclude false positive signals.
(§3) The resulting images were analyzed and quantified using spot-recognition software GenePix (Molecular Devices). For each spot, the mean signal intensity was extracted (between 0 and 65535 arbitrary units). For further data evaluation, the MMC2 values were determined. The MMC2 equals the mean value of all three instances on the microarray. Except the coefficient of variation (CV)—standard-deviation divided by the mean value—is larger 0.5, in this case the mean of the two closest values (MC2) is assigned to MMC2.

linear peptide 44_ECD1-3 = biological target: T2, linear peptide 44_ECD1-3 (human); test: as above
T2 peptide: VQISRYKDYREPPWS
Protocol: as §1, §2, §3

linear peptide 45_ECD1-3 = biological target: T3, linear peptide 45_ECD1-3 (human); test: as above
T3 peptide: SRYKDYREPPWSENK
Protocol: as §1, §2, §3

[2] = biological target: T4, cyclic peptide 44_ECD1-3 cys (human, disulfide 1-17 (inferred)); test: peptide microarray, cyclic peptide, Cy5 anti-rat IgG detection
T4 construct: Same 15-mer as linear peptide 44, flanked by cysteines; also called Peptide 44 (cyclic)
T4 peptide: CVQISRYKDYREPPWSC
Protocol: as §1, §2, §3

[3] = biological target: T5, cyclic peptide 45_ECD1-3 cys (human, disulfide 1-17 (inferred)); test: as above
T5 construct: Same 15-mer as linear peptide 45, flanked by cysteines; also called Peptide 45 (cyclic)
T5 peptide: CSRYKDYREPPWSENKC
Protocol: as §1, §2, §3

[4] = biological target: T6, cyclic peptide 46_ECD1-3 cys (human, disulfide 1-17 (inferred)); test: as above
T6 construct: Same 15-mer as linear peptide 46, flanked by cysteines; also called peptide 46 (cyclic)
T6 peptide: CKDYREPPWSENKYDIC
Protocol: as §1, §2, §3

[5] = biological target: SP31 (ab64085) Abcam rabbit monoclonal antibody against human TMEM16A; test: peptide pre-incubation of the antibody, western blot of TMEM16A

Sequence of TMEM16A-GFP fusion protein on HEK293 stable cells (Q5XXA6 whole entry, the tested form may be a part): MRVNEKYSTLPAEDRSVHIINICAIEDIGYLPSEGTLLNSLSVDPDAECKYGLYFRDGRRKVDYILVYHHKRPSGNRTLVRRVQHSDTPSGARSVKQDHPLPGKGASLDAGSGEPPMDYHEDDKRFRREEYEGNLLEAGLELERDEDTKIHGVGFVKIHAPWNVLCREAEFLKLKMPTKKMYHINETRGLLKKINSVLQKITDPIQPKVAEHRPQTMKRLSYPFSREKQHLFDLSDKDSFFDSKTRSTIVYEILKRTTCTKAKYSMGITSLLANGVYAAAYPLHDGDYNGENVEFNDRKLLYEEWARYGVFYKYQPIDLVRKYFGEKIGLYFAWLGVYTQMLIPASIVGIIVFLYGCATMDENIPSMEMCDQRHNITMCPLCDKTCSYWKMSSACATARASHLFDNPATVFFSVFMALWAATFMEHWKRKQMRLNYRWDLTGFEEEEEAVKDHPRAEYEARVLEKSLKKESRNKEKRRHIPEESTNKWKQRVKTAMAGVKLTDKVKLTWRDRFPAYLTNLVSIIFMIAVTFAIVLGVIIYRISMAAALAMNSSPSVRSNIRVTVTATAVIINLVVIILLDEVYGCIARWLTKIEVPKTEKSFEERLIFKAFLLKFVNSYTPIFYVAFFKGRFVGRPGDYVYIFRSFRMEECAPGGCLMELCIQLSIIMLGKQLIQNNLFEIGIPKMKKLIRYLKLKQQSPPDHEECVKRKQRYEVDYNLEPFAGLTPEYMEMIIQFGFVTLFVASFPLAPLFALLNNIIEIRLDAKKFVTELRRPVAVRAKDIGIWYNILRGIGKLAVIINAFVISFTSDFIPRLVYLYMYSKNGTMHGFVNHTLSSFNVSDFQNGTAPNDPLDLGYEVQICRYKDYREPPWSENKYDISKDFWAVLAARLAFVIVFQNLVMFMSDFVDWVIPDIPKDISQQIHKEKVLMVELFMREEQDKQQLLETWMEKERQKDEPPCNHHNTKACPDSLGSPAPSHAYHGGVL

median fluorescence intensity [1]: 93
Molecule: isotype control antibody (control for 12E11 in flow cytometry)

Signal intensity after subtraction of control signal (AU) (linear peptide 46_ECD1-3): 15100 AU
Signal intensity after subtraction of control signal (AU) (linear peptide 44_ECD1-3): 36800 AU
Signal intensity after subtraction of control signal (AU) (linear peptide 45_ECD1-3): 27300 AU
Signal intensity after subtraction of control signal (AU) [2]: 55900 AU
Signal intensity after subtraction of control signal (AU) [3]: 56600 AU
Signal intensity after subtraction of control signal (AU) [4]: 24800 AU
B1: 12E11 TMEM16A antibody (antibody, V domains shown)
VH: QVQLKESGPGLVQPSQTLTLTCTVSGFSLSNYDMHWVRQSPGKGLDWMGVIWGNGKTQYNSGLTSRLSISRDTSKSQVFLKMNSLQTEDTAIYFCTRSGYYYDGSYYSLFDYWGQGVMVTVSS
VL: DVVLTQTPPTLSATIGQSVSISCRSSQSLLHSNGNTYLNWLLQRPGQPPQLLIYLVSRLESGVPNRFSGSGSGTDFTLKISGVEAEDLGVYYCVQSTHAPAFGGGTKLELK
notes: Rat hybridoma monoclonal made by genetic immunization; The same-isotype control was rat IgG2b, which implies a rat IgG2b constant region

peptide concentration that effectively blocked [5]: 0.01 µg/mL
B2: blocking Peptide #2 (peptide)
peptide: DHEECVKRKQRYEVDYNLE
